What all share (assay): IEDB peptide-MHC binding, purified MHC/competitive/radioactivity; filed as Kd, often an IC50 or EC50 that approximates it; ≥ and ≤ were set here for values at or beyond the usual limits of such assays
The target in experiment [1] is HLA-A*11:01.
The target in experiment [2] is HLA-A*33:01.
The target in experiment [3] is HLA-A*31:01.
In experiment [4] the target is HLA-A*68:01.
Experiment [5] has as its target HLA-A*03:01.
Setting [6] is: source organism: Vaccinia virus WR.
Where [7] appears, read: source organism: SARS coronavirus Tor2.
Setting [8] is: source organism: Lymphocytic choriomeningitis virus (strain Armstrong).
The mark [9] stands for this setting: source organism: Mammarenavirus brazilense.

The term Kd denotes the concentration at which binding is half-saturated.

On to SSAVVDNKLK, for which the equilibrium dissociation constant (Kd) in experiment [1] (setting [6]) was determined as 37.2 nM; in experiment [2] (setting [6]), 17500 nM; in experiment [3] (setting [6]) it was 1520 nM; in experiment [4] (setting [6]), 1.19 nM; in experiment [5] (setting [6]), 289 nM.
Consider ATKRYPGVMY, for which the equilibrium dissociation constant (Kd) was 164 nM in experiment [1] (setting [6]); no less than 70000 nM in experiment [2] (setting [6]); 18100 nM in experiment [3] (setting [6]); no less than 70200 nM in experiment [4] (setting [6]); 32.8 nM in experiment [5] (setting [6]).
With SFGGASCCLY, the Kd in experiment [1] (setting [7]) is 140 nM; in experiment [2] (setting [7]), 3770 nM; in experiment [3] (setting [7]) it was 2500 nM; in experiment [4] (setting [7]) it was 180 nM; in experiment [5] (setting [7]), 302 nM.
For the sequence MINYYNEMSR, the Kd is 53.3 nM in experiment [1] (setting [6]); 406 nM in experiment [2] (setting [6]); 95.9 nM in experiment [3] (setting [6]); 13.4 nM in experiment [4] (setting [6]); 143 nM in experiment [5] (setting [6]).
For QQQQGQTVTK, the equilibrium dissociation constant (Kd) in experiment [1] (setting [7]) is 492 nM; in experiment [2] (setting [7]), no less than 70000 nM; in experiment [3] (setting [7]), no less than 27800 nM; in experiment [4] (setting [7]), 11300 nM; in experiment [5] (setting [7]) it was 10200 nM.
Consider EFIFSALDEK, for which the Kd in experiment [1] (setting [6]) is 1.42 nM; in experiment [2] (setting [6]), 1630 nM; in experiment [3] (setting [6]) it was no less than 70000 nM; in experiment [4] (setting [6]), 1.3 nM; in experiment [5] (setting [6]) it was 15.5 nM.
The matching figures for KFAEESYTYY: 10200 nM, no less than 42100 nM, no less than 21700 nM, 1130 nM and 4860 nM.
The matching figures for NIRLTDTEY: no less than 77900 nM, no less than 77700 nM, no less than 77900 nM, no less than 77700 nM and no less than 78000 nM.
With TSFGPLVRK, the dissociation constant Kd in experiment [1] (setting [7]) worked out at 0.21 nM; in experiment [2] (setting [7]) it was 5250 nM; in experiment [3] (setting [7]) it was 452 nM; in experiment [4] (setting [7]), 7.04 nM; in experiment [5] (setting [7]) it was 4.39 nM.
Turning to LIDLAFLIK, the dissociation constant (Kd) in experiment [1] (setting [6]) is 462 nM; in experiment [2] (setting [6]), no less than 77700 nM; in experiment [3] (setting [6]) it was 2330 nM; in experiment [4] (setting [6]), no less than 77700 nM; in experiment [5] (setting [6]), 3480 nM.
With IYKGVYQFK, the Kd in experiment [1] (setting [8]) is 718 nM; in experiment [2] (setting [8]), 13.5 nM; in experiment [3] (setting [8]), 3.21 nM; in experiment [4] (setting [8]), 8810 nM; in experiment [5] (setting [8]), 198 nM.
For the sequence ALALLLLDR, the Kd is 7530 nM in experiment [1] (setting [7]); no less than 51700 nM in experiment [2] (setting [7]); 8000 nM in experiment [3] (setting [7]); no less than 52900 nM in experiment [4] (setting [7]); 3150 nM in experiment [5] (setting [7]).
In the case of PSILPSLIK, the Kd in experiment [1] (setting [6]) was 383 nM; in experiment [2] (setting [6]), no less than 77700 nM; in experiment [3] (setting [6]), no less than 36900 nM; in experiment [4] (setting [6]), no less than 40900 nM; in experiment [5] (setting [6]) it was 1850 nM.
For the sequence FIMAYVNQAH, the dissociation constant (Kd) in experiment [1] (setting [9]) is no less than 42700 nM; in experiment [2] (setting [9]), 14500 nM; in experiment [3] (setting [9]) it was no less than 30200 nM; in experiment [4] (setting [9]), 3450 nM; in experiment [5] (setting [9]) it was no less than 20300 nM.
Regarding RFVKFNDYRK, the Kd in experiment [1] (setting [6]) worked out at 429 nM; in experiment [2] (setting [6]) it was 1830 nM; in experiment [3] (setting [6]) it was 37.3 nM; in experiment [4] (setting [6]), 51.1 nM; in experiment [5] (setting [6]) it was 516 nM.
Consider SQILPDPLK, for which the Kd is 4550 nM in experiment [1] (setting [7]); no less than 55900 nM in experiment [2] (setting [7]); no less than 25300 nM in experiment [3] (setting [7]); no less than 50400 nM in experiment [4] (setting [7]); 17400 nM in experiment [5] (setting [7]).
For RSNAILHNIY, the dissociation constant Kd is 1360 nM in experiment [1] (setting [6]); no less than 70000 nM in experiment [2] (setting [6]); 619 nM in experiment [3] (setting [6]); 1030 nM in experiment [4] (setting [6]); 3720 nM in experiment [5] (setting [6]).
The matching figures for LSTLNFNNLR: 207 nM, 1530 nM, 36.8 nM, 12 nM and 3740 nM.
Turning to VTGLFKDCSK, the dissociation constant (Kd) in experiment [1] (setting [7]) was 4740 nM; in experiment [2] (setting [7]), no less than 57100 nM; in experiment [3] (setting [7]), 5120 nM; in experiment [4] (setting [7]), 10300 nM; in experiment [5] (setting [7]), 4670 nM.
For ELAELLEMK, the equilibrium dissociation constant (Kd) in experiment [1] (setting [6]) came out at 1270 nM; in experiment [2] (setting [6]), 1210 nM; in experiment [3] (setting [6]) it was 15900 nM; in experiment [4] (setting [6]), 13.3 nM; in experiment [5] (setting [6]) it was 3800 nM.

(Values after the Immune Epitope Database (IEDB).)
